# In patent US20040071707A1, “Modulation of cell growth” (priority 2000, published 2004):
# B1: kringle 2: kringle 2 domain of tPA purified from K2P by limited elastase digestion and lysine-Sepharose (protein)
# chain: CYFGNGSAYRGTHSLTESGASCLPWNSMILIGKVYTAQNPSAQALGLGKHNYCRNPDGDAKPWCHVLKNRRLTWEYCDVPSC
# B2: K2P-PMSF: proteolytically inactivated K2P (protease domain inactivated with PMSF) (protein)
# chain: SYQVICRDEKTQMIYQQHQSWLRPVLRSNRVEYCWCNSGRAQCHSVPVKSCSEPRCFNGGTCQQALYFSDFVCQCPEGFAGKCCEIDTRATCYEDQGISYRGTWSTAESGAECTNWNSSALAQKPYSGRRPDAIRLGLGNHNYCRNPDRDSKPWCYVFKAGKYSSEFCSTPACSEGNSDCYFGNGSAYRGTHSLTESGASCLPWNSMILIGKVYTAQNPSAQALGLGKHNYCRNPDGDAKPWCHVLKNRRLTWEYCDVPSCSTCGLRQYSQPQFRIKGGLFADIASHPWQAAIFAKHRRSPGERFLCGGILISSCWILSAAHCFQERFPPHHLTVILGRTYRVVPGEEEQKFEVEKYIVHKEFDDDTYDNDIALLQLKSDSSRCAQESSVVRTVCLPPADLQLPDWTECELSGYGKHEALSPFYSERLKEAHVRLYPSSRCTSQHLLNRTVTDNMLCAGDTRSGGPQANLHDACQGDSGGPLVCLNDGRMTLVGIISWGLGCGQKDVPGVYTKVTNYLDWIRDNMRP
# B3: rsctPA: Recombinant single chain tPA (protein)
# chain: B2 chain
# Legend:
# [1] = system: HUVEC; assay: In vitro endothelial cell proliferation assay; format: cell-based, Human; conditions: for bFGF induced EC growth: 10 ng/mL bFGF, non-toxic doses (<40 μg/mL) for K2P fragments; for effect on basal HUVEC/EC growth (substance alone): M199 with 2% FBS, 4 days, colorimetric
# Description: Human umbilical vein endothelial cells (HUVEC) were purchased from Clonetics or isolated from umbilical vein cords by mild collagenase treatment as described and cultured in M199 with Earle's salts (Sigma) with 20% heat inactivated fetal bovine serum (Sigma), 100 IU/mL penicillin 100 μg/mL streptomycin (Gibco), 250 ng/mL fungizone (Gibco), 2 mM glutamine (Gibco), 5 IU/mL heparin (Sigma) and 50 μg/mL ECGS (Technoclone, Vienna, Austria). Human vascular smooth muscle cells (HVSMC) were isolated as described.
# 3×10^3 cells were plated in 96-well plates and allowed to attach overnight. Growth was arrested by incubation with 100 μL reduced growth medium (M199 with 2% FBS) for 24 h. Thereafter anti-tPA antibodies and other reagents were added to wells. K2P (Reteplase), anti-kringle 2 (7VPA) and anti-finger/EGF antibodies (3VPA and 6VPA) were a gift from Technoclone, Vienna, Austria. Anti-kringle 1 (PAM-2), anti-kringle 2 (ESP1) and anti-protease (374B and ESP2) antibodies were purchased from American Diagnostica, Alpha Labs, UK. D-mannitol and LY294002 were obtained from Sigma. VEGF121 and bFGF were purchased from R&D Systems Inc., UK. Recombinant single chain tPA (rsctPA) was obtained from Boehringher Ingelheim. The mutant alatPA was kindly provided by Prof. Roger Lijnen (Center for Molecular and Vascular Biology, Leuven, Belgium). Aprotinin was purchased from Boehringer Mannheim. The tPA peptides (tPA I and tPA II) corresponding to residues 7-17 and 15-26 respectively were synthesized by the Clinical Sciences Centre peptide synthesis facility at Hammersmith and the ICRF peptide unit. Rp-cAMPS and Lavendustin A were obtained from Calbiochem, UK. After 4 days of incubation cell number was quantified colorimetrically by the addition of 20 μL CellTiter 96 AQueous One Solution Cell Proliferation Assay (Promega) at 492 nm and 620 nm reference filter. Background absorbance was determined with substrate alone and subtracted from all wells.
# HUVEC were plated at 1×10^5 cells in 12 well plates overnight. Medium was replaced with reduced growth medium overnight followed by addition of anti-K2 antibody. Control wells contained M199 and 2% FBS alone. After 3 days incubation cells were counted in a hemocytometer.
# [2] = system: HVSMC; assay: HVSMC growth (proliferation assay); format: cell-based, Human
# Description: (A and B). HUVEC or HVSMC cultures were incubated with increasing concentrations of PMSF inactivated K2P (K2P-PMSF) or control treated K2P either in the absence (A) or presence (B) of 10 ng/mL bFGF at the concentrations indicated. Angiostatin was included as a positive control for inhibition of bFGF mediated cell growth. HUVEC results represent mean of at least three independent experiments with three different batches of HUVEC. Experiments with HVSMC were repeated twice. (C and D). HUVEC were treated with 100 μg/mL K2P-PMSF and increasing concentrations of either anti-kringle 2 antibody, 7VPA (C) or rsctPA (D) for four days as indicated. Control wells contained M199 and 2% FBS alone. Data represent mean±SE of duplicate experiments with two different batches of HUVEC. […]
# 3×10^3 cells were plated in 96-well plates and allowed to attach overnight. […] After 4 days of incubation cell number was quantified colorimetrically by the addition of 20 μL CellTiter 96 AQueous One Solution Cell Proliferation Assay (Promega) at 492 nm and 620 nm reference filter. Background absorbance was determined with substrate alone and subtracted from all wells.
Molecule,VEGF stimulated HUVEC growth ([1]; 10 ng/mL VEGF),bFGF induced EC growth [1],effect on basal HUVEC/EC growth (substance alone) [1],"concentration giving 50% inhibition ([1]; HUVEC growth, bFGF 10 ng/mL (FIG. 4B))",HVSMC growth in the presence of bFGF ([2]; 10 ng/mL bFGF),"basal HVSMC growth, % of control ([2]; highest concentration used (100 μg/mL))"
B1,significantly inhibited,significantly inhibited,significantly inhibited,,,
B2,,completely inhibited,inhibited,30 µg/mL,No inhibition,65 % of control
B3,,,neither rsctPA nor alatPA could stimulate EC growth,,,
